Literature values in article PMC7640956.

Target: Spike RBD (Severe acute respiratory syndrome coronavirus 2) (UniProt P0DTC2)

In the case of “ACE2-derived 23-mer peptide (from UniProt Q9BYF1)”, the Kd is given as 47 nM.
